Measured values reported in the nanobody polyreactivity screen of Harvey et al. (2022).

Experiment: yeast display, Sf9 membrane polyspecificity reagent, FACS + sequencing; frameworks hold sequencing errors
Method in brief: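 Nanobodies came from a synthetic yeast display library in Saccharomyces cerevisiae BJ5465, induced with galactose for 36–48 hours and stained for 1 hour at 4 °C with 10% biotinylated, detergent-solubilized Sf9 membrane reagent. Cells were enriched on streptavidin microbeads and then FACS-sorted, with low and high (top ~1%) gates set on anti-HA fluorescence for expression and streptavidin fluorescence for reagent binding. Each polyreactivity label reflects the gate a clone came from. Genes were amplified by colony PCR, sequenced by MiSeq 2 × 250 and filtered by CDR length.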

Row | Sequence | polyreactivity (PSR sort gate)
1 | QVQIVESGGGLVQAGGSHRLSCAASGSTFVYNAMGWYRQAPGIQRELVAAITVIGGRTYYADSVKGRFTISRDNAKNTVYLQMNSLKPEDTSVYYCNGTWAYRGHGYWGQGTEVTVSS | low polyreactivity
2 | QVQIVESGGGLVQAGGSHRLSCADSGRTFGVNTMGWYRQAPAKERQFVAAISSRSGSTYYADSVKGRFTISRDNAKNNVYLQMNSLKPEDTAVDYCAKGPLPRAGVKFDYWGHGTQVTVSS | low polyreactivity
3 | QVQIVESGGGLVQAGGSIRLSCAASGSIFYDNDMGWYRQAPAKERELVAAISWSASDTYYADSVKGRFTISRDNAKNTVYLQMNSLKPEDTAVYYCNAEVYEWYVVYSALDYWGQGTQVTVSS | low polyreactivity
4 | QVQIVESGGGLVQAGGSLRISCAATGSTFDSFAMGWYRQAPGKERELVDAITRRGTRTYYADSVKGRFTISRDNAKNTVYLQRNSLKPEDTAVYYCNAVTQCSKTPGYGFNYWGQGTQVTVSS | high polyreactivity
5 | QVQIVESGGGLVQAGGSLRISCPASGRTFNYNAMGWYRQAPGKERELVAAITSGASTNYADSVKGRFTISRDNAKNTVFLQINRLKPEDTAVYYCAKATYPHEYDYWGQGTQVNVSS | low polyreactivity
6 | QVQIVESGGGLVQAGGSLRLRCAASGRIFSWNAMGWSRQAPGKERELVPAITWRGTSTYYADSVKGRFTISRDIAKNTVYLQMISLKPEDTAVYFCNVGLYRDWYTFGLEYDYWGQGTQVSVSS | low polyreactivity
7 | QVQIVESGGGLVQAGGSLRLSCAASGFTFGHYAMGWYRQAPGKERELVAAISYSGVRTYYADSVKGRFTISRDNAKNTVYLQMNSLKPEDTAVYYCNKYPAHYQTRRYDYWGHGTQVTVSS | high polyreactivity
8 | QVQIVESGGGLVQAGGSLRLSCAASGFTFRAYAMGWYRQAPGKERELDAAISKSGGRTYYADSVKGRFTISRDNAKNTVYLQMNSLKPEDTAVYYCAKAYRRAFINNPDVYYYPDDYWGQGTQVTVSS | high polyreactivity
9 | QVQIVESGGGLVQAGGSLRLSCAASGGIFAVNAMGWYRQAPGKERELVASITRTGGSTSYEDSVKGRFTISRDNAKNTVYLQMNSLKPEDTAVYYCAAGWQVVLSTNGMDYWGQGTQVTVSS | high polyreactivity
10 | QVQIVESGGGLVQAGGSLRLSCAASGGTFPAYAMGWYRHAPGKERELVAAISDDDSTYYADSVKGRFTISRDNAKNTVYLQKNSLKPEDTAVYYCNVEYWYYPSVEYSWTAYDYWGQGTQVTVSS | low polyreactivity
11 | QVQIVESGGGLVQAGGSLRLSCAASGIIFYYYAMGWYRQAPGKERELVAAITKSGGSTYYADSVKGRFTISRDNAKNTVYLQMNSLKPEDTAVYYCAAEYSYYPLVGLDYWGQGTQVTVSS | low polyreactivity
12 | QVQIVESGGGLVQAGGSLRLSCAASGITFLWNVMGWYRQAPGKERELVATITSIGGITNYADSVKGRFTISRDNAKNSVYLQMNSLKTEDSAFYYCATQIVSGSRVDRNDYWGQGTQVTVSS | low polyreactivity
13 | QVQIVESGGGLVQAGGSLRLSCAASGLTLGRNAMGWYRQAPGKERELVAAITQSGGSTYYADSVKGRFTISRDNAKNTVYLQMNSLKPEDTAVYYCAAEVVRQWHGIGYDYWGHGTQVTVSS | low polyreactivity
14 | QVQIVESGGGLVQAGGSLRLSCAASGRIFDGNALGWYRQAPGKERELVAAISRIGGTYYADSVKGRFTISRDNAKNTVYLQMNRLKPEDTAVYYCAADPSSVGYHVEYDYWGQGTQVTVSS | low polyreactivity
15 | QVQIVESGGGLVQAGGSLRLSCAASGRIFFQYALGWYRQAPGKERELVAAIRYSGGSTYYADSVKGRFTISRDNAKNTVYLQMNSLKPEDTAVYYCAARYTRRHYDYWGQGTQVTVSS | high polyreactivity
16 | QVQIVESGGGLVQAGGSLRLSCAASGRIFGAYGMGWYRQAPGKERELVAAISNGGRTSYADSVKGRFTISRDNAKNTVYLQMNSLKPEDTAVYYCAAVYWQWYGAYDYWGQGTQVTVSS | high polyreactivity
17 | QVQIVESGGGLVQAGGSLRLSCAASGRIFVPYVMGWYRQAPGKERELVASISDSDTSTYYADSVKGRFTISRDNAKNTVYLQMNSLKPEDSAVYYCAAGVLRRATELYYWGQGTQVTVSS | low polyreactivity
18 | QVQIVESGGGLVQAGGSLRLSCAASGRIIGTYAMGWYRQAPGKERELVATISYSSGRTYYADSVKGRFTISRDNAKNTVYLQMNSLKPEVTAVYYCAAVGTGSSLRYDYWGQGTQVTVSS | high polyreactivity
19 | QVQIVESGGGLVQAGGSLRLSCAASGRIIRDYDMGWYRQAPGKERELVAAITFRSGSTYYADSEKGRFTISRDNAKNTVYLLMNSLKPEDTAVYYCADANSILLFDSWGQGTQVTLSS | low polyreactivity
20 | QVQIVESGGGLVQAGGSLRLSCAASGRILKYYAMGWYRPAPGKEREFVASIRYSGGSTYADSVKGRFTISRDNAKNTVYLQMNSLKPEDTAGYYCNAQLSWTKFAYRGMDYGGQGTQVTVSS | high polyreactivity
21 | QVQIVESGGGLVQAGGSLRLSCAASGRTFAWYAMGWYRQAPGKERELVAAITWSGGSTYYADSVKGRFTISRDNAKNTVYLQMNSLKPEETAVYYCAARTVVGWYSRYCYWGQGTQVTVSS | low polyreactivity

Row | Sequence | polyreactivity (PSR sort gate)
22 | QVQIVESGGGLVQAGGSLRLSCAASGRTFFPYAMGWYRQAPGKEREFVAAITKTDDSTYYADSVKGRFTISRDNAKNTVYLQMNSLKPEDTAVYYCAADRSISADYVVSVDYDYWGQGTQVTVSS | low polyreactivity
23 | QVQIVESGGGLVQAGGSLRLSCAASGRTFKGYAMAFYRQAPGKERELVAGISRGAGRTYYADSVKGRFTISRDNAKNTVYLQMNSLKPEDTAVYYCAAVPSYNSTSPFYYWGQGTQVTVSS | high polyreactivity
24 | QVQIVESGGGLVQAGGSLRLSCAASGRTFNAYAMGWYRPAPGKERELVAAISGNGGSTYYADSVKGRFTISRDNAKNTVYLQMNSLKPEDTAVYYCYKVQRSLLGYNSWGQGTEVTVSS | high polyreactivity
25 | QVQIVESGGGLVQAGGSLRLSCAASGRTFRGNVMGWSRQAPGKEREFVAAITRSGSNTYYADSVKGRFTISRDNAKNTVYLQMNSLKPEDTAVYYCAKSVLLGYKRHDSWGQGTQVTVSS | high polyreactivity
26 | QVQIVESGGGLVQAGGSLRLSCAASGRTFWRYTMGWYRQAPGKERELVASISTGGGSTYYADSVKGRFTISRDNAKNTVYLQMNSLKPEDTAVYYCNVEYVSVSRVWRGNYWGQGTQVTVSS | low polyreactivity
27 | QVQIVESGGGLVQAGGSLRLSCAASGSIFKIYEMGWYRLAPGKEREMVASMTCSGGSTYYADSVKGRFTISRDNAKNTVYLQRNSLKPEDTAGYYCAAAVLGSSKSEVDPDRPEYYYWGQGTQVTVSS | low polyreactivity
28 | QVQIVESGGGLVQAGGSLRLSCAASGSIFLRNAMGWYRQAPGKERELVASITWNGASTSYADSVKGRFTISRDNAKNTVYLQMNSLKPEDTAVYYCAAVTVQDSNLNYGYWGQGTQVTVSS | low polyreactivity
29 | QVQIVESGGGLVQAGGSLRLSCAASGSIFSRYTMGWYRQAPGKERELVARINSSGTSTYYADSVKGRFTISRDNEKNSVYFQMNSLKPEDTAVYYCDRTSRHVRYDYWGQGTQVTVSS | low polyreactivity
30 | QVQIVESGGGLVQAGGSLRLSCAASGSIFSYNVMGWYRQAPGKERELVAAISWNDGSTYYADSVKGRFTISRDNAKNTVYLQMNSLKPEDTAVYYCAAEYGRRWHNELDYWGQGTQVTLSS | low polyreactivity
31 | QVQIVESGGGLVQAGGSLRLSCAASGSNNGYYTMGWYRQAPRKERELVAAINYSGGRTYYADSVKGRFTISRDNAKNTVYFQMNSLKPEDTAVYYCARAYYYGSDIMDYWGQGTQVTVSS | high polyreactivity
32 | QVQIVESGGGLVQAGGSLRLSCAASGSTFLTNTMGWYRQAPGKERELVAAITLRGGRTYYADSVKGRFTISRDNAKNTVYLQMNSLRPEDTAVYYCNARNYYYPSDRDYWGQGTQVTVSS | low polyreactivity
33 | QVQIVESGGGLVQAGGSLRLSCAASGSTFTLNAMGWYRQAPGKERELVADISWSSGRTYYADSVKGRFTISRDNAKNTVYLQMNSLKPEDTAVYYCAARLPFEHVDYWGQGTQVTVSS | low polyreactivity
34 | QVQIVESGGGLVQAGGSLRLSCAASGSTFVENAMGWYRPAPGKERELVAAISSSGDSTFYADSVKGRFTISRDNAKNNVYLQMNSLKPEDTAVYYCAADRRINYDGLDMDYWGQGTQVTVSS | low polyreactivity
35 | QVQIVESGGGLVQAGGSLRLSCAASGSTFYSYAMGWYRPAPGKERELVAGISYIGGRTYYADSVKGRFTISRDNAKNTVYLQMNSLKAEDTAVYDCAADQYGTTYGYWGHGTQVTVSS | high polyreactivity
36 | QVQIVESGGGLVQAGGSLRLSCAASGSTFYSYAMGWYRQAPGKERELVAAIDWSGDNTNYADSVKGRFTISRDNAKNTVYLQMKSLKPEDTAVYYCAAVYSYYRLYAYPAYYYWGQGTQVTVSS | low polyreactivity
37 | QVQIVESGGGLVQAGGSLRLSCAASGSTLGVNAMGWYRQAPGKERELVAAISKSGGGTYYADSVKGRFTISRDIAKNTVYLQMNRLIPEDTAVYYCNAPVSRKYYSWGQGTQVTVSS | high polyreactivity
38 | QVQIVESGGGLVQAGGSLRLSCAASGSTLYAYAMGWYRQAPGKERELVAAIRTGGSTYYADSVKGRFTISRDNAKNTVYLQMNSLKPEDTAVYYCADDHGYQYGYWGQATQVTVSS | low polyreactivity
39 | QVQIVESGGGLVQAGGSLRLSCAASGSTSLVNAMGWYRQAPGKESELVAAITRGGNTYYADSVKGRFTISRDNAKNTVYLQMNSLKPEDTAVYYCAADFWRFYYEYDYWGQGTQVTVSS | low polyreactivity
40 | QVQIVESGGGLVQAGGSLRLSCAASGYTFRFNAMGWYRQAPGKEREFVAAIDFGGAGTYYADSVKGRFTISRDNAKNTVYLQMNSLKPEDTAVYYCNARDGVTTEFDYWGQGTQVTVSS | low polyreactivity
41 | QVQIVESGGGLVQAGGSLRLSCAASRRIFEYYTMGWYRQAPGKERELVARISSGGSTYYADTVKGRFTISRDNAKNSVYLQLNSLLPEDTAVYYCAAGRGYWWWYGYDYWGQGTEVTVSS | low polyreactivity
